Earlier results as cited in article PMC5668312.

Experiments:
[1] = molecular target: Vps2 (Saccharomyces cerevisiae) (UniProt P36108)
CHMP1B (Homo sapiens) = CHMP1B (Homo sapiens) (UniProt Q7LBR1)
Sequence of CHMP1B (Homo sapiens) (Q7LBR1 whole entry): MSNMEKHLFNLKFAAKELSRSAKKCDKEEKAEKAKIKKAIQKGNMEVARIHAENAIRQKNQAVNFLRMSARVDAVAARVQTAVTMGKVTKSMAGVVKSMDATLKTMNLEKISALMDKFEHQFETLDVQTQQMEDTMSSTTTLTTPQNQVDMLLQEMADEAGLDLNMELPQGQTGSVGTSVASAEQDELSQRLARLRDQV

Sequence of spastin MIT (Q9UBP0 117-198): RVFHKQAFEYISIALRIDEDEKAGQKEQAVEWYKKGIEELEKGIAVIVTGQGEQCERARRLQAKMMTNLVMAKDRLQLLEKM
Sequence of Vps2 (Saccharomyces cerevisiae) (P36108 whole entry): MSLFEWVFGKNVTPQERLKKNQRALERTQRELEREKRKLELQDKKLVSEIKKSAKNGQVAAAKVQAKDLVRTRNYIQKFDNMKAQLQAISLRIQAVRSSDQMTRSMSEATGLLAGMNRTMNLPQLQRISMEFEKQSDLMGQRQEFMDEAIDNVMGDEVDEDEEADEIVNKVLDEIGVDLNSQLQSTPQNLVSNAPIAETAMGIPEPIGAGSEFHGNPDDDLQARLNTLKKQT
Sequence of Vps4 MIT (P52917 1-83): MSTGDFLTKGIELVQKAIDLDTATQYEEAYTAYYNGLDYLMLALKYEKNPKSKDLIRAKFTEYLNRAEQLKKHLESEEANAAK

Kd [1] | Kd (CHMP1B (Homo sapiens)) | Substance
30 µM |  | Vps4 MIT (from UniProt P52917)
 | 12 µM | spastin MIT (from UniProt Q9UBP0)
